Among the data in the Human Domainome abundance scans (Beltran et al. 2025) are abundance fitness values, retold here.

± gives the uncertainty stated by the source.

To fix the notation:
B1: POU domain, class 3, transcription factor 1, residues 247 to 324; numbered along this chain, Q03052 (parent)
chain: EDAPSSDDLEQFAKQFKQRRIKLGFTQADVGLALGTLYGNVFSQTTICRFEALQLSFKNMCKLKPLLNKWLEETDSSS

Variants of B1 are the subject of the data set. The data set is described as follows: abundance fitness (aPCA) (normalised: wild type 0, dead -1); higher = more abundant; growth selection in yeast, the domain comes from the species named. To be noted: Homo sapiens.
EDAPSSDDLEQFAKQFKQRRIKLGFTQADVGLALGTLYGNVFSQTTICRLEALQLSFKNMCKLKPLLNKWLEETDSSS: the abundance fitness is -0.718 ± 0.09. With EDAPSSDDLEQFAKQFKQRRIKLGFTQADVGLALGTLYGNVFSQTTICRMEALQLSFKNMCKLKPLLNKWLEETDSSS, the abundance fitness is -0.597 ± 0.13. With EDAPSSDDLEQFAKQFKQRRIKLGFTQADVGLALGTLYGNVFSQTTICRPEALQLSFKNMCKLKPLLNKWLEETDSSS the figure was -0.484 ± 0.14; with EDAPSSDDLEQFAKQFKQRRIKLGFTQADVGLALGTLYGNVFSQTTICRNEALQLSFKNMCKLKPLLNKWLEETDSSS, -0.874 ± 0.31; with EDAPSSDDLEQFAKQFKQRRIKLGFTQADVGLALGTLYGNVFSQTTICRKEALQLSFKNMCKLKPLLNKWLEETDSSS, -0.903 ± 0.28. In the case of EDAPSSDDLEQFAKQFKQRRIKLGFTQADVGLALGTLYGNVFSQTTICRCEALQLSFKNMCKLKPLLNKWLEETDSSS, the abundance fitness was -0.943 ± 0.26.

On to EDAPSSDDLEQFAKQFKQRRIKLGFTQADVGLALGTLYGNVFSQTTICRDEALQLSFKNMCKLKPLLNKWLEETDSSS, for which the abundance fitness was -0.993 ± 0.23. In the case of EDAPSSDDLEQFAKQFKQRRIKLGFTQADVGLALGTLYGNVFSQTTICRIEALQLSFKNMCKLKPLLNKWLEETDSSS, the abundance fitness is -0.556 ± 0.26. Consider EDAPSSDDLEQFAKQFKQRRIKLGFTQADVGLALGTLYGNVFSQTTICRHEALQLSFKNMCKLKPLLNKWLEETDSSS, for which the abundance fitness is -1.09 ± 0.48. For EDAPSSDDLEQFAKQFKQRRIKLGFTQADVGLALGTLYGNVFSQTTICRGEALQLSFKNMCKLKPLLNKWLEETDSSS, the abundance fitness is -0.736 ± 0.076. Regarding EDAPSSDDLEQFAKQFKQRRIKLGFTQADVGLALGTLYGNVFSQTTICRAEALQLSFKNMCKLKPLLNKWLEETDSSS, the abundance fitness was -0.826 ± 0.12. Turning to EDAPSSDDLEQFAKQFKQRRIKLGFTQADVGLALGTLYGNVFSQTTICREEALQLSFKNMCKLKPLLNKWLEETDSSS, the abundance fitness was -0.299 ± 0.092. Consider EDAPSSDDLEQFAKQFKQRRIKLGFTQADVGLALGTLYGNVFSQTTSCRFEALQLSFKNMCKLKPLLNKWLEETDSSS, for which the abundance fitness was -0.736 ± 0.14. As to EDAPSSDDLEQFAKQFKQRRIKLGFTQADVGLALGTLYGNVFSQTTGCRFEALQLSFKNMCKLKPLLNKWLEETDSSS, the abundance fitness was -0.751 ± 0.091. Consider EDAPSSDDLEQFAKQFKQRRIKLGFTQADVGLALGTLYGNVFSQTTMCRFEALQLSFKNMCKLKPLLNKWLEETDSSS, for which the abundance fitness was -0.69 ± 0.16. Next, EDAPSSDDLEQFAKQFKQRRIKLGFTQADVGLALGTLYGNVFSQTTECRFEALQLSFKNMCKLKPLLNKWLEETDSSS: -1.12 ± 0.23; EDAPSSDDLEQFAKQFKQRRIKLGFTQADVGLALGTLYGNVFSQTTHCRFEALQLSFKNMCKLKPLLNKWLEETDSSS: -0.944 ± 0.38; EDAPSSDDLEQFAKQFKQRRIKLGFTQADVGLALGTLYGNVFSQTTQCRFEALQLSFKNMCKLKPLLNKWLEETDSSS: -0.954 ± 0.33. Next, EDAPSSDDLEQFAKQFKQRRIKLGFTQADVGLALGTLYGNVFSQTTRCRFEALQLSFKNMCKLKPLLNKWLEETDSSS: -0.555 ± 0.076; EDAPSSDDLEQFAKQFKQRRIKLGFTQADVGLALGTLYGNVFSQTTPCRFEALQLSFKNMCKLKPLLNKWLEETDSSS: -0.661 ± 0.17; EDAPSSDDLEQFAKQFKQRRIKLGFTQADVGLALGTLYGNVFSQTTCCRFEALQLSFKNMCKLKPLLNKWLEETDSSS: -0.294 ± 0.22. With EDAPSSDDLEQFAKQFKQRRIKLGFTQADVGLALGTLYGNVFSQTTWCRFEALQLSFKNMCKLKPLLNKWLEETDSSS the figure was -0.408 ± 0.093; with EDAPSSDDLEQFAKQFKQRRIKLGFTQADVGLALGTLYGNVFSQTTACRFEALQLSFKNMCKLKPLLNKWLEETDSSS, -0.765 ± 0.12; with EDAPSSDDLEQFAKQFKQRRIKLGFTQADVGLALGTLYGNVFSQTTLCRFEALQLSFKNMCKLKPLLNKWLEETDSSS, -0.304 ± 0.073. Turning to EDAPSSDDLEQFAKQFKQRRIKLGFTQADVGLALGTLYGNVFSQTTTCRFEALQLSFKNMCKLKPLLNKWLEETDSSS, the abundance fitness was -0.883 ± 0.2. For EDAPSSDDLEQFAKQFKQRRIKLGFTQADVGLALGTLYGNVFSQTTVCRFEALQLSFKNMCKLKPLLNKWLEETDSSS, the abundance fitness was -0.228 ± 0.06. For the variant EDAPSSDDLEQFAKQFKQRRIKLGFTQADVGLALGTLYGNVFSQTTDCRFEALQLSFKNMCKLKPLLNKWLEETDSSS, the abundance fitness is -1.24 ± 0.39. In the case of EDAPSSDDLEQFAKQFKQRRIKLGFTQADVGLALGTLYGNVFSQMTICRFEALQLSFKNMCKLKPLLNKWLEETDSSS, the abundance fitness is -0.205 ± 0.08.

With EDAPSSDDLEQFAKQFKQRRIKLGFTQADVGLALGTLYGNVFSQYTICRFEALQLSFKNMCKLKPLLNKWLEETDSSS, the abundance fitness is -0.304 ± 0.28.

Turning to EDAPSSDDLEQFAKQFKQRRIKLGFTQADVGLALGTLYGNVFSQWTICRFEALQLSFKNMCKLKPLLNKWLEETDSSS, the abundance fitness was -0.443 ± 0.075.

On to EDAPSSDDLEQFAKQFKQRRIKLGFTQADVGLALGTLYGNVFSQPTICRFEALQLSFKNMCKLKPLLNKWLEETDSSS, for which the abundance fitness is -0.434 ± 0.12. Consider EDAPSSDDLEQFAKQFKQRRIKLGFTQADVGLALGTLYGNVFSQNTICRFEALQLSFKNMCKLKPLLNKWLEETDSSS, for which the abundance fitness was determined as 0.112 ± 0.093.

With EDAPSSDDLEQFAKQFKQRRIKLGFTQADVGLALGTLYGNVFSQLTICRFEALQLSFKNMCKLKPLLNKWLEETDSSS, the abundance fitness is -0.102 ± 0.055.

With EDAPSSDDLEQFAKQFKQRRIKLGFTQADVGLALGTLYGNVFSQQTICRFEALQLSFKNMCKLKPLLNKWLEETDSSS, the abundance fitness worked out at 0.167 ± 0.075.

With EDAPSSDDLEQFAKQFKQRRIKLGFTQADVGLALGTLYGNVFSQVTICRFEALQLSFKNMCKLKPLLNKWLEETDSSS, the abundance fitness is -0.148 ± 0.052.
